This passage reports Tm results from FireProtDB (doi:10.1093/protein/gzt061).

For the series the following is noted: Rhodococcus erythropolis; pH 7.1; Thermal; Fluorescence; Potassium phosphate 50mM; transition: 2; reversible: no; whole UniProt chain shown.

B1: Limonene-1,2-epoxide hydrolase wild type, Q9ZAG3 (protein)
chain: MTSKIEQPRWASKDSAAGAASTPDEKIVLEFMDALTSNDAAKLIEYFAEDTMYQNMPLPPAYGRDAVEQTLAGLFTVMSIDAVETFHIGSSNGLVYTERVDVLRALPTGKSYNLSILGVFQLTEGKITGWRDYFDLREFEEAVDLPLRG
In the case of B1, the midpoint of thermal melting (Tm) stood at 48.8 °C.

In general, Tm refers to the temperature at the midpoint of the melting transition.
